41 sequences from the nanobody polyreactivity screen of Harvey et al. (2022) can be followed below.

A short description of the series: yeast display, Sf9 membrane polyspecificity reagent, FACS + sequencing; frameworks hold sequencing errors. The gist of the method:
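Nanobodies from a synthetic yeast display library (Saccharomyces cerevisiae BJ5465), induced 36–48 hours with galactose, were stained 1 hour at 4 °C with 10% biotinylated, detergent-solubilized Sf9 membrane reagent, enriched on streptavidin microbeads, then FACS-sorted. Anti-HA (expression) and streptavidin (reagent binding) fluorescence set low and high (top ~1%) gates. Polyreactivity labels come from the gate of origin. Genes were colony-PCR amplified, MiSeq 2 × 250 sequenced and filtered by CDR length.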
Take “QVQLVESGGGLVQAGGSLRLSCAASGSISPQNVMGWYRQAPGKERELVAAITGGGSTNYADSVKGRFTISRDNAKNTVYLQMNSLKPEDTAVYYCAVYRRYLPYDYWGQGTQVTVSS”: the “polyreactivity (PSR sort gate)” value is reported as “low polyreactivity”. In the case of “QVQLEESGGGLVQAGGSLRLSCAASGRNFTYNTMGWYRQAPGKERELVAAITSGGSTYYADSVKGRFTSSRDNAKNTVYLQMNSLKPEDTAVYYCAKRSWAYTDYFVSEYYWGQGTQVTVSS”, the “polyreactivity (PSR sort gate)” value was “high polyreactivity”. Regarding “QVQLVESGGGLVQAGGSLRLSCAASGYTILIYAKGWYRQAPGKERELVASISRSGGSTYYADSVKGRFTISRDNAKNTVYLQMNSLKTEDTAVYYCNADFGYDSVVEYDYWGQGTQVTVSS”, the “polyreactivity (PSR sort gate)” value is given as “low polyreactivity”. On to “QVQLVESGGGLVQAGGSLRLSCAASGSTFVFYAMGWYRQAPGKERELVASISFRGGSTRYADSVKGRFTISRDNAKNTVYLQMNSLKPEDTAVYYCNARPFYRYYYWGQGTQVTVSS”, for which the “polyreactivity (PSR sort gate)” value was “high polyreactivity”.

Consider “QVHLVESGGGLDQAGGSLRLSSAASGSIFDKYAMVWYRQAPGKERELVAAITSGGRTYYADSVKGRFTISRDNAKNTVYLQMNSLKPEDTAVYYCAAGARRSYYPSQYYYWGQGTQVTVSS”, for which the “polyreactivity (PSR sort gate)” value is given as “low polyreactivity”. In the case of “QVQLVESGGGLVQAGGSLRLSCAASGSTFAYYTMGWYRQAPGKERELVAAISASGGSTYYADSVKGRFTISRDFAKNTVYFQMNSLKPEDTAVYYCNAESYLTGWWVDYWGQGTQVTVSS”, the “polyreactivity (PSR sort gate)” value is “low polyreactivity”.

As to “QVQLVESGGGLVQAGGTLRISCAASGRIFTIYAMGWYRQAPGKERELVATISSNVGSTYYADSVKGRFTISRDNAKNTVYLQMNSLKPEDTAVYYCAATRRAGFTTAKFDYWGQGTQVTVSS”, the “polyreactivity (PSR sort gate)” value is recorded as “high polyreactivity”. For the sequence “QAQLQESGGSLVQAGGGLRLSCAAIGYISVGSVMGWYRQAPSKERELVASIDQGANTNYADSVKGRFTISRDNAKNNVYLQMNSLKPEDTAVYYCATETTYILNYWGQGTQVTVSS”, the “polyreactivity (PSR sort gate)” value is “low polyreactivity”. For “QVQLVESGGGLVQAGGSLRLSCAAYGLTFCLNAMGWYRQAPGKERYLVAAIRYSGGGTYADSVKGRFTISRDNAMNTVYLQMISLKPEDTAVYYCAALYYLGYPQFDYWGQGTQVTVSS”, the “polyreactivity (PSR sort gate)” value was “low polyreactivity”. For the sequence “QVQLVESRGGLVQAGGSLRLSCAASGFTFSWYAMGWYRQAPGKERELVAAITRSGGSTNYADSVKGRFTMSRDNAKNTVYLQMNSLKPEDTAVYYCAARYSPGFGYWGKGTQVTVSS”, the “polyreactivity (PSR sort gate)” value was “high polyreactivity”.

For the sequence “QVQLVESGGGLLQAGRSLRLTCAASGRTFRAYAMGWYRQAPGKEMELVASISRRGGSTYYADSVKGRFTISRDNAKNSVYLQMNSLKPEDTAVSYCAASDKYLQYDYWGQGSQVTVSS”, the “polyreactivity (PSR sort gate)” value is “high polyreactivity”.

Turning to “QVQLVESGGGLVQAGGSLRLSCAASGRTFLWNAMGWYRQAPGKERELVAAISISGGNTNYADSVKGRFTISRDNAKNTVYLQMNSLKPEDTAVYYCNADPRAEPGDWSYEMDYWGQGTQVTVSS”, the “polyreactivity (PSR sort gate)” value is listed as “low polyreactivity”. Regarding “QVQLVESGGGLVQAGGSLRLSCAASGFTFAFYAMGWYRQAPGKERELVAAISWDGVTTYYADSVKGRFTISRDHAKNTVYLQMNSQKPEDTAVYYCAADYPDYAGSFWPSGMYYWGQGTQVTVSS”, the “polyreactivity (PSR sort gate)” value is “low polyreactivity”. On to “QVQLVESGGGLVQAGGSLRLSCAASGSIFYWYAMGWYRQAPGKERELVAGITGRGGSTYYADSVKGRFTISRDNAKNTVYLQMNSLKPEDSAVYYADFVKYGKYYQRYDYWAQGTQVTVSS”, for which the “polyreactivity (PSR sort gate)” value is “high polyreactivity”. Regarding “QVQLVESGGGLVQAGGSLRLSWAASGRTFQYYTMGWYRQAPGKERELVAAISTGGSTHYADSVKGRFTISRDNAKNTVYLQMNSLKPEDTAVYYCAALWSRRRSRPRFPGDYWGQGTQVTVSS”, the “polyreactivity (PSR sort gate)” value is “high polyreactivity”.

With “QVQLVESGGGLVQAGGSLRLSCAASGSTFKLYVMGLYRPAPGKERELVAAIDWSGGSTYYADSVKGRFTISRDNAKNTVYLQMNSLTPEDTAVYYCAADSPNSWRMDYWGQGTQVTVSS”, the “polyreactivity (PSR sort gate)” value is listed as “low polyreactivity”.

On to “QVQLVESGGGLVQAGGSLRLSCSASGRIFSTYAMGWYRQAPGKERELVAAINKIGGSTYYADSVKGRFTISRDNAKNTVYLQMNSLKPEDTAVYYCAADAPYYPVRRYYYWGQGTQVTVSS”, for which the “polyreactivity (PSR sort gate)” value is reported as “low polyreactivity”. The same measure for “QVQLVESGAGLVQAGGSLRLSFAASGRTFVYNAMAWYRQAPGKERELVAAIDGGGDRTYYADSVKGRFTISRDNAKNTVYLQMNSLKPEDTAVYYCARDPGDTYYYSYPEGDYWGQGTLVTVSS”: “low polyreactivity”; for “QVQLVESGGGLVQAGGSLRLSCAASGSIFQYYTMGWYRQAPGKERELVATISRRGGTTYYADSVKGRFTISRDNAKNTVYLQMNILKPEDTAVYYCNADSRTYRYYWSYGYWGQGTQVTVSS”: “high polyreactivity”.

For “QVQLVESGGGLVQAGGSLRLSCAASGNNFYNNAMGWYRQAPGKERELVATISRRGGRTYYADSVKGRFTISRDNAKNTVYLQMNSLKPEDTSVYYCNARFHGDYDYWGQGTQVTVSS”, the “polyreactivity (PSR sort gate)” value was “high polyreactivity”. To “QVQLVESGGGLVQAGGSLRLSCAASGSTIINYAMGWYRQAPGKERELVAVITSDDGSTYYADSVKGRFTISRDNAKNTVYLQMNSLKPEDTAVYYCAADYYDQRYRPGPWYDYWGQGSQVTVSS” belongs “low polyreactivity”; to “QVQLVESGAALVQAAGSLRLSCAASGSIFTPYAMGWYRQAPGKERELVAGIRSSGGRTYYADSVKGRFTISRDNAKNTVYLQMNSLKPEDTAVSYCAADQDWYGFVIGFDYWGQGTQVTVSS”, “low polyreactivity”. As to “QVQLVESGGGLVQAGGSLRLSCAASGSTFYYYAMGWYRQAPGKERELVASINYSAGRTYYADSVKGRFTISRDNAKNTVYLQMNSLKPEDTAVYYCATGYPYHVNRYYYWGQGTQVTVSS”, the “polyreactivity (PSR sort gate)” value was “high polyreactivity”. Regarding “QVQLVESGGGLVQAVGSLRLSCAASGSIFTPYAMGWYRQAPGKERELVAAISGSGGSTRYADSVKGRFTISRDNATNTVYLQMNSLKPEDTAVYYCAADRYTYIWYHIYDYWGQGTQVTVSS”, the “polyreactivity (PSR sort gate)” value was “low polyreactivity”. For “QVQLVESGGGLVQAGGSLRLSCAASGFIFPRYAMGWYRQAPGQERELVAAISKSGGRTYYADSGKGRFTISRDYAKNTFYLQMNSLNPEDTAVYYCAAGRISRFSRYYYWGQGTQVTVSS”, the “polyreactivity (PSR sort gate)” value is “high polyreactivity”.

As to “QVQLVESGGGLVQAGGSLRLSCAASAFILYRNAMGWYRQAPGKERELVAAITWNGDRTHYADSVMGRFTISRDNAKNTVYLQMNSLKPEDNAVYYCAAYYVSVRGGRYRNKWYDHWGQGTQVTVSS”, the “polyreactivity (PSR sort gate)” value is given as “high polyreactivity”. Take “QVQLVESGGGLVQAGGSLRLSCAASGSTFVYNAMGWYRQAPGKERELVAAITVIGGRTYYADSVKGRFTISRDNAKNTVYLQMNSLKPEDTAVYYCAAVTYWFWPGMDYWGQGTQVTVSS”: the “polyreactivity (PSR sort gate)” value is recorded as “low polyreactivity”. As for “QVQLVESGGGLVQAGGSLRLSCAASGSTFFVYDMGWYRQAPGKERELVAAISSDTSTNYADSVKGRFTISRDNAKNTVYLQMNSLKPEDTAVYYCNADSYWEYDYWGQGTQVTVSS”, the “polyreactivity (PSR sort gate)” value was “low polyreactivity”. As to “QVQLQESGGGLVQAGGSLRLSCAASGSIFHLHIMCWYRQAPGKERESVAAISNGTSTYYADSVKGRFTICRDNAKNTVYLQMNSPKPDDTAVYYCAALFLVSKHHHYWGEGTQVTVSS”, the “polyreactivity (PSR sort gate)” value is given as “low polyreactivity”. The same measure for “QVQLVESGGGLVQAGGSLRLSCASSGSILTSYAMGWYRQAPRKERELVASIDWSAGTTYYADSVKGRFTISRDNAKNTVYLQMNSLKPEDTAVYYCGKLEFLSGYPYRPEYGSWGQGTQVTVSS”: “low polyreactivity”; for “QVQLVESGGGLVQAGGSLRLSCAASGSIFAYYAMGWYRQAPGKEREIVAAISKRGGRTYYADSVKGRFTISRDNAKNTVYLQMNSLKPEDTAVYYCATVGVRTNLNRYGYWGQGTQVTVSS”: “high polyreactivity”. In the case of “QVQLVESGGGLVQAGGSLRLSCAASGRIFRGYVMGWYRQAPGKERELVARITKSGGRTYYADSVKGRFTISRDNAKNTVYLQMNSLKPEDTAVYYCNTAWTGYPRYQYGGNYWGQGTQVTVSS”, the “polyreactivity (PSR sort gate)” value was “high polyreactivity”. The same measure for “QVQLVESGGGLDQAGGSLRLSCAASGSIFMPNAMGWYRQAPGKERELVAAISASTSSTYYADSVKGRFTISRDNAKNTVYLEMNSLKPEDTGVYYCAAYYVFFYLEDVYYEYDYWGQGTQVTVSS”: “high polyreactivity”; for “QVQLVESGGGLVQAGGSLRLSCAASGSTFGSYTMGWYRQAPGKERELVAAISYSSGRTYYADSVKGRFTISRDNAKNTVYLQMNSLKPEDTAVYYCAAVSRGRGEYDYWGQGTQLTVSS”: “high polyreactivity”; for “QVQLVESGGGLVQAGGSLRLSCAASGRTFIIYTMGWYRQAPGKEREFVAAITRSGGGTYYADSVKGRFTISRDNAKNTVYLQMNSLKPEDTAVYYFAADRFYDQAYDYWGQGTQVTVSS”: “low polyreactivity”. “QVQLVESGGGLVQAGGSLSLSCAASGRMFLRYAMGWYRQAPGKERELVAVITWSGGSTYYADSVKGRFTISRDNAKNTVYLQMNSLKPEDTAVYYCAADWYPTGFYYWGQGTQVTVSS”: the “polyreactivity (PSR sort gate)” value is “low polyreactivity”.

With “QVQLVESGRGLVQAGGSLSLSCAASGRIFYYYVMGWYRQAPGKERELVAVIDWSGGSTYYADSVKGRFTISRVNAKNTVYLQMNSLKPEDTAVYYCAKVGLNFSLAYEDYDYWGQGTQVTVSS”, the “polyreactivity (PSR sort gate)” value was “low polyreactivity”. With “QVQLVESGGGLVQAGGSLRLSSADSGRTFRYYAMRWYRPAPGKERELVAAITRGGRTNYADSVKGRFTISRDNAKNTVYLQMNSLKPEDTAVYYCAAVLYTPNKYASYYWGQGTQVTVSS”, the “polyreactivity (PSR sort gate)” value is listed as “high polyreactivity”. On to “QVQLVESGGGLLQAGGSLRLSCADRRTLSFYAKGCSIQAPGKERELVAAISRSGGSTYYADSEKGRFTISRDNAKNTGKLQMNRLKPEDTAVYYFAARSSGGYDYWGQGTQVTVSS”, for which the “polyreactivity (PSR sort gate)” value is listed as “high polyreactivity”. With “QVQLVESGGGLVQAGGSLRLICASSGSILRYNTMVWYRQAPGKERELVAAITYRGGSTYYADSVKGRFTISRDNAKNTVYLQMNSLKPEDTAVYYCNAARWWKTPDDYWGQGNQVTVSS”, the “polyreactivity (PSR sort gate)” value is “high polyreactivity”.

Take “QVQLVESGGGLVQAGGSLRLSCAASGSTFKYYAMGWYSQAPGKERELVAAISKGATRTYYADSVKGRFTISRDTAKNTVYLQMNSLKPEDTAVYYCAADRLKFPGEYDYWGQGTQVTVSS”: the “polyreactivity (PSR sort gate)” value is “high polyreactivity”.
